# Assay results as given in article PMC3769231.
# How the values were obtained:
# [1] = biological target: human liver cathepsin L (human); assay: enzyme inhibition assay (Ki from substrate hydrolysis progress curves); human cathepsin L activity in 400 mM sodium acetate buffer (pH 5.5), 40 µM Z-FR-AMC, 25°C, with or without NtCYS, reducing conditions
# [2] = biological target: recombinant NtCP14 (N. tabacum); assay: enzyme inhibition assay (Ki(app) = [I0]/(V0/Vi-1)); apparent; recombinant NtCP14 activated in 100 mM sodium acetate (pH 4.0); hydrolysis of 40 µM Bz-FVR-AMC at 30°C, pH 6.0, reducing conditions, NtCYS varied
# [3] = biological target: papain (from papaya latex) (papaya) (UniProt P00784); assay: enzyme inhibition assay (Ki from substrate hydrolysis progress curves); papain activity in 50 mM phosphate buffer (pH 6.0), 40 µM Z-FR-AMC, 37°C, with or without NtCYS, reducing conditions
# Chain of papain (from papaya latex) (papaya) (P00784 134-345): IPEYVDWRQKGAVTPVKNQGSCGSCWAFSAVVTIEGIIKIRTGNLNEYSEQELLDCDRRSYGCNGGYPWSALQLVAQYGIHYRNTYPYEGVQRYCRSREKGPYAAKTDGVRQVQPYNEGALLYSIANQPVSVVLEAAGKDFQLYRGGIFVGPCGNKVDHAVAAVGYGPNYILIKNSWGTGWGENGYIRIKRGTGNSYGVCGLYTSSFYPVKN
# Chain of recombinant NtCP14 (N. tabacum) (main, as listed by the source): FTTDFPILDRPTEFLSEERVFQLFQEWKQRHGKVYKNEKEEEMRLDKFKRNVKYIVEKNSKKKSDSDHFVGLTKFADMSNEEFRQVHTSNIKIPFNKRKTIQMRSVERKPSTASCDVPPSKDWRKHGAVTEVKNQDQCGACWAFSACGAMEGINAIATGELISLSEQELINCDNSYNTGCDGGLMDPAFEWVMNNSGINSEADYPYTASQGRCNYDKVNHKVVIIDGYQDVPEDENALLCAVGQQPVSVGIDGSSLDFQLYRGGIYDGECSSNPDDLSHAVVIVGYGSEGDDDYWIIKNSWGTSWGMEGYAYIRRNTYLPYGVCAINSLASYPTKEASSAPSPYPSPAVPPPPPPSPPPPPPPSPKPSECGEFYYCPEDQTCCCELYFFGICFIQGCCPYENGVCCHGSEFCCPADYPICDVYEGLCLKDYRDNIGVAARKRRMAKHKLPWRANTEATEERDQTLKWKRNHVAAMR
substance,measurement,setting,value
recombinant NtCYS (natural protein),Ki,[1],0.39 nM
same,Ki,[2],740 nM
same,Ki,[3],64.5 nM
